T1: Flag-SARA, full length (UniProt O95405 1-1425)
T1 construct: SARA; plasmid pCMV5b-Flag-SARA; also called SARA FL; source: HEK-293, transfected, in lysate
T1 sequence (looked up): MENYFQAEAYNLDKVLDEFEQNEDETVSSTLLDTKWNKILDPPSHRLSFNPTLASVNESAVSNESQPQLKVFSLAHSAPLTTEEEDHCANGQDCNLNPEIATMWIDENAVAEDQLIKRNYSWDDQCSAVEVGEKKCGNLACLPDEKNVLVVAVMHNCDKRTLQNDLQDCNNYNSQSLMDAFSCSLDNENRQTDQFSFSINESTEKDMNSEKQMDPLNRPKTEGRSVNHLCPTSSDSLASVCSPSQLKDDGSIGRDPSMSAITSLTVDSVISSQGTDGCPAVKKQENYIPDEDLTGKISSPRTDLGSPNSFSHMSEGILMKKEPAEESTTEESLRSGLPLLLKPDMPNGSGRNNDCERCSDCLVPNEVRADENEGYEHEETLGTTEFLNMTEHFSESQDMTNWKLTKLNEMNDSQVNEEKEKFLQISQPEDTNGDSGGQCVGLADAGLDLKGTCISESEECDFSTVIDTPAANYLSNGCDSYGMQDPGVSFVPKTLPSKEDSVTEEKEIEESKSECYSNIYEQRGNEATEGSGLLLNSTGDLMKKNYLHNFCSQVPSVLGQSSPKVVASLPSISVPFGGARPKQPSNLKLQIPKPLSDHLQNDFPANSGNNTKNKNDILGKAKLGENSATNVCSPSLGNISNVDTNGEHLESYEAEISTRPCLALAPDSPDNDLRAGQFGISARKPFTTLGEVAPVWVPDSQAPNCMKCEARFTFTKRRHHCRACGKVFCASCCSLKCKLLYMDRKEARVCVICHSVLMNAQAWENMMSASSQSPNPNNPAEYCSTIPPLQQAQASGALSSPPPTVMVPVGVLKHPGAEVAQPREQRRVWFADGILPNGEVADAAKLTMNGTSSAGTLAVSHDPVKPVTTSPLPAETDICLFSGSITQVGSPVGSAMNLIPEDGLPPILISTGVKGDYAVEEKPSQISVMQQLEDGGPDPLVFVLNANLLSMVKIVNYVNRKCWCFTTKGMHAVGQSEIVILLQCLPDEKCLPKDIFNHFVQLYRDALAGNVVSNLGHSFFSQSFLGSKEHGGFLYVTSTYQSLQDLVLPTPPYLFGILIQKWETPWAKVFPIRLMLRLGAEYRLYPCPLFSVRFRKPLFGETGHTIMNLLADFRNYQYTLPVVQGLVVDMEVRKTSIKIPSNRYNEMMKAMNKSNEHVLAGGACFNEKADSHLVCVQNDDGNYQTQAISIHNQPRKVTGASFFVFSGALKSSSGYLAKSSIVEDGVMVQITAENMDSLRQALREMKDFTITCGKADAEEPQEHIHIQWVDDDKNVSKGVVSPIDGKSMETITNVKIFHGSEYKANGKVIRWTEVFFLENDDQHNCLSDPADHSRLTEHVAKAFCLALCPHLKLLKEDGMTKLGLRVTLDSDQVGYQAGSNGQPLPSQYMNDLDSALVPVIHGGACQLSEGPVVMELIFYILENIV

T2: SIP1 Smad-binding domain (amino acids 315–487) on the 3xFlag-thioredoxin scaffold (UniProt Q9R0G7 315-487)
T2 construct: SIP1, amino acids 315–487; amplified from pACT2-SIP1-315-487 (from D. Huylebroeck), which I recall as a mouse clone; cloned into the RsrII site of pCI-3xFLAG-Trx; also called Sip1 315–487; TrxSIP1; source: HEK-293, transfected, in lysate
T2 sequence (looked up): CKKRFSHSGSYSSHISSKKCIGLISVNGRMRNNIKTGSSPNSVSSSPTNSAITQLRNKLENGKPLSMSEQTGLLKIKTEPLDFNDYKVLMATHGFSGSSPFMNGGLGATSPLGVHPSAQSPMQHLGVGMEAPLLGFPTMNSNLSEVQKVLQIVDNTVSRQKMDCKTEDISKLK

B1: Renilla luciferase-Smad3 D408H (natural protein, UniProt P84022 1-425, looked up)
chain: MSSILPFTPPIVKRLLGWKKGEQNGQEEKWCEKAVKSLVKKLKKTGQLDELEKAITTQNVNTKCITIPRSLDGRLQVSHRKGLPHVIYCRLWRWPDLHSHHELRAMELCEFAFNMKKDEVCVNPYHYQRVETPVLPPVLVPRHTEIPAEFPPLDDYSHSIPENTNFPAGIEPQSNIPETPPPGYLSEDGETSDHQMNHSMDAGSPNLSPNPMSPAHNNLDLQPVTYCEPAFWCSISYYELNQRVGETFHASQPSMTVDGFTDPSNSERFCLGLLSNVNRNAAVELTRRHIGRGVRLYYIGGEVFAECLSDSAIFVQSPNCNQRYGWHPATVCKIPPGCNLKIFNNQEFAALLAQSVNQGFEAVYQLTRMCTIRMSFVKGWGAEYRRQTVTSTPCWIELHLNGPLQWLHKVLTQMGSPSIRCSSVS
notes: Smad3; source: HEK-293, transfected together with constitutively active Alk5, in lysate
B2: Renilla luciferase-Smad3 R292A (natural protein, UniProt P84022 1-425, looked up)
chain: B1 chain with R292A, H408D
notes: as for B1
B3: Renilla luciferase-Smad3 Y238A (natural protein, UniProt P84022 1-425, looked up)
chain: B1 chain with Y238A, H408D
notes: as for B1
B4: Renilla luciferase-Smad3 Y384A (natural protein, UniProt P84022 1-425, looked up)
chain: B1 chain with Y384A, H408D
notes: as for B1
B5: Renilla luciferase-Smad3 R243A (natural protein, UniProt P84022 1-425, looked up)
chain: B1 chain with R243A, H408D
notes: as for B1
B6: Renilla luciferase-Smad3 R268A (natural protein, UniProt P84022 1-425, looked up)
chain: B1 chain with R268A, H408D
notes: as for B1
B7: Renilla luciferase-Smad3 Y297A (natural protein, UniProt P84022 1-425, looked up)
chain: B1 chain with Y297A, H408D
notes: as for B1
B8: Renilla luciferase-Smad3 Y298A (natural protein, UniProt P84022 1-425, looked up)
chain: B1 chain with Y298A, H408D
notes: as for B1

Where a chain is given by its changes, count along the chain named.

One test deals with T3, Flag-Smad3, full length (UniProt P84022 1-425).
T3 construct: Smad3; plasmid pCMV5-Flag-Smad3 (from J. Massagué); bait for Smad3-Smad3 association; also called Smad3 FL; source: HEK-293, transfected together with constitutively active Alk5, in lysate
Kind of test: co-IP; LUMIER: Renilla luciferase-Smad3 and Flag-tagged partner co-expressed with constitutively active Alk5 in HEK-293; Flag protein captured from cleared lysate (TNE: 10 mM Tris-HCl pH 7.8, 150 mM NaCl, 1 mM EDTA, 1% Igepal CA-630) on anti-Flag 96-well plates, 2 h at 4 °C; co-precipitated Renilla luciferase activity, TrxGA background subtracted, percent of wild-type Smad3. To be noted: partners not purified.
Regarding B1, the “percent binding relative to wild-type Smad3” value worked out at 30%. Same read-out and setting: as for B2, the figure is 49%. Same read-out and setting: as for B3, the figure is 24%.

Consider B4, for which the “percent binding relative to wild-type Smad3” value was 28%. The same measure, in the same setting: as for B5, the figure is 46%; as for B6, 27%.

A further test addresses T1, Flag-SARA, full length. Described as above. To be noted: partners not purified.
Consider B1, for which the “percent binding relative to wild-type Smad3” value was 168%.

B2: the “percent binding relative to wild-type Smad3” value was found to be 120%. On the same count and under the same terms, to B3 belongs 162%; to B4, 178%; to B5, 181%. For the molecule B6, the “percent binding relative to wild-type Smad3” value worked out at 159%.

The target of a further test is T2, SIP1 Smad-binding domain (amino acids …). Described as above. To be noted: partners not purified.
For the molecule B7, the “percent binding relative to wild-type Smad3” value is 80%. Still for that read-out and setting: to B8 belongs 33%.

(Values after article PMC3176292, “Mutations in Protein-Binding Hot-Spots on the Hub Protein Smad3 Differentially Affect Its Protein Interactions and Smad3-Regulated Gene Expression” (PLoS ONE, 2011).)
